We go through one molecule from publication PMC7335050, “Characterization of an alternative BAK-binding site for BH3 peptides” (Nature Communications, 2020).

The experiment has as its target T1, BAKΔTM (human, UniProt Q16611 1-186).
T1 construct: BAK without the transmembrane segment, human, residues 1-186 of GenBank BC004431, in pET29b(+); Named His6-BAKΔTM in the liposome and cytochrome c assays; no tag removal is described; also called His6-BAKΔTM; WT BAKΔTM; source: E. coli BL21, purified (Ni2+-NTA-agarose, Superdex S200)
T1 sequence (looked up): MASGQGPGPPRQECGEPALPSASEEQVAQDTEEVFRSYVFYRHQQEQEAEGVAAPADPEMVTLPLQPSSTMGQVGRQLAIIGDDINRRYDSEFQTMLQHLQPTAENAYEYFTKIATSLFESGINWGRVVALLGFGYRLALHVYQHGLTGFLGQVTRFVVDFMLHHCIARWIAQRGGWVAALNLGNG
The experiment in a line: SPR; BAKΔTM or mutants immobilised on a CM5 chip (Biacore T200; about 4000 RU in the mutant comparisons), BH3 peptides injected at 30 µl per min for 1 min, 25 °C, 10 mM HEPES pH 7.4, 150 mM NaCl, 0.05 mM EDTA, 0.005% polysorbate 20; steady-state analysis, approximate constants. The conditions noted are these: both partners purified. In general terms: SPR reads the build-up and loss of mass on a sensor chip optically.

B1: BMF BH3 peptide (peptide)
chain: HQAEVQIARKLQCIADQFHRLHVQQH
What is called Kd is a measure of binding affinity in units of concentration. B1 showed a Kd of under 1000 nM.
